No end group written: not given here.

The Kd is a measure of binding affinity in units of concentration. A word on the EC50 (read off the curve): it is the concentration that produces a half-maximal response.

Assay [1] addresses purified recombinant CBP KIX domain (Homo sapiens (Human)) (UniProt Q92793). The experiment in a line: microscale thermophoresis (MST), FITC-peptide fixed, purified KIX titrated, n=3.
For assay [2] the target is unchanged. In words: microscale thermophoresis (MST), FITC-peptide at fixed concentration, purified KIX titrated; concentration read is that of KIX.
Assay [3] has as its target T1, purified recombinant CBP KIX domain (Homo sapiens (Human), UniProt Q92793 587-666).
T1 construct: Linker residues may remain after the thrombin cut; also called purified KIX
The description is as above.

Assay [4] deals with T1, purified recombinant CBP KIX domain. In words: microscale thermophoresis (MST), FITC-peptide fixed, purified KIX titrated, n=3.
For assay [5] the target is unchanged. In words: microscale thermophoresis (MST), FITC-peptide at fixed concentration, purified KIX titrated.

T1 sequence (Q92793 587-666 limits assumed): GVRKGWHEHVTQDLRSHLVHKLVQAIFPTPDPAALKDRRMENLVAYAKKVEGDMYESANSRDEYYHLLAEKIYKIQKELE
purified recombinant CBP KIX domain (Homo sapiens (Human)), sequence (Q92793 587-666 limits assumed): as above

In the case of “FITC-MYBMIM (FITC-conjugated D-amino acid retro-inverso peptide, D-aa)”, in assay [1], the Kd came to 25.4 µM. Further, the concentration giving a half-maximal response (EC50 (read off the curve)) in assay [2] stood at 30 µM.

B1: FITC-MYB (FITC-conjugated L-amino acid peptide, L-aa) (peptide)
peptide: YGRKKRRQRRRGGKRIKELELLLMSTENELK-NH2
modifications: not fully specified (N-terminus); also: conjugated to FITC, site not given here, N-terminal acetyl
notes: It is uncertain whether the labelled peptide carried the TAT part; also called L-aa peptide
In the case of B1, in assay [3], the “EC50 (read off the curve)” value is approximately 5 µM. Moreover, the Kd in assay [4] worked out at 5.25 µM.

B2: FITC-TAT (fluorescein-conjugated TAT peptide, FITC-AHA-YGRKKRRQRRR-NH2) (peptide)
peptide: YGRKKRRQRRR
modifications: not fully specified; N-terminal FITC-aminohexanoic acid (FITC-AHA); C-terminal amide; L-amino acids
B2: the binding result in assay [5] was “no binding (tested: about 50 uM KIX)”.
